Patent US20150045310A1
Where no end group is shown, it is not given here. eCPX = enhanced circularly permuted OmpX display scaffold; linker = not defined here

B1: Bim BH3 14-mer variant M2-4 displayed on eCPX (peptide, not shown: large carriers; small tags and cut ends)
peptide: WLAQLLRRIGDEIN-{linker-eCPX}
modifications: reading uncertain; also: printed as Trp-Leu-Ala-Gln-Leu-Leu-Arg-Arg-Ile-Gly-Asp-Glu-Ile-Asn
B2: Bim BH3 14-mer variant M2-2 displayed on eCPX (peptide, not shown: large carriers; small tags and cut ends)
peptide: WVAQLLRRIGDEVN-{linker-eCPX}
modifications: reading uncertain; also: printed as Trp-Val-Ala-Gln-Leu-Leu-Arg-Arg-Ile-Gly-Asp-Glu-Val-Asn

Biological target: A1 (biotinylated pro-survival Bcl-2 family protein) (UniProt Q16548)
Assay: flow cytometry of E. coli displaying the peptide on eCPX, biotinylated target + streptavidin-PE; apparent Kd

Binder | Kd [nM]
WIAQELRRIGDEFN-{linker-eCPX} (peptide, not shown: large carriers; small tags and cut ends, reading uncertain) [wild-type Bim BH3 14-mer peptide (residues 147-160) displayed on eCPX] | 26.9
B1 | 4.18
WVAQWLRRWGDEFN (peptide, not shown: large carriers; small tags and cut ends, also: displayed as fusion to eCPX scaffold (letters not given here)) [Bim BH3 14-mer variant X2-3 displayed on eCPX] | 30.2
WLAQLLRRYGDEFN (peptide, not shown: large carriers; small tags and cut ends, also: displayed as fusion to eCPX scaffold (letters not given here)) [Bim BH3 14-mer variant X2-8 displayed on eCPX] | 40.5
B2 | 9.99
WIAQQLRRIGDEFN (peptide, not shown: large carriers; small tags and cut ends, not fully specified) [Bim BH3 14-mer E151Q (pseudo-wild-type) displayed on eCPX] | 29.6

Biological target: A1 (biotinylated pro-survival Bcl-2 family protein) (UniProt Q16548)
Assay: apparent Kd, bacterial surface display and flow cytometry

Binder | fold affinity improvement against wild-type Bim 14-mer [fold]
B1 | 6
B2 | 3
